Test results taken from US20250057965A1, “PEPTIDE OLIGONUCLEOTIDE CONJUGATES” (Sarepta Therapeutics, Inc., priority 2015, published 2025).
“And” between values parts separate entries of the source, which are not always exact repeats. Equal entries are not always repeated.

Key:
[1] = Maximum tolerated dose (MTD) study in mdx mice: survival and in-life observations; format: in vivo, Mouse (mdx); details: for MTD % Survival / MTD in-life observations: n=3
Protocol: The maximum tolerated dose (MTD) of selected peptide-oligomer-conjugates of the disclosure was determined in mice according to the regimens shown in Table 8. […] PPMO-5 has a MTD>200 mg/kg.
Importantly, the toxicity of a peptide-oligomer-conjugate can be described in two phases: t1 and t2. t1 refers to rapid death, or death within 48 hours, most likely due to cardiopulmonary collapse. t2 refers to chronic kidney toxicity, observed with a peptide-oligomer-conjugate after multiple weekly doses. The MTD measurements described herein refer to ti toxicity (48 hour endpoint).

[2] = Individual body weights in dose response study; format: in vivo, Mouse (mdx); details: mdx mice
Protocol: (§1) Any animal showing signs of distress, particularly if death appeared imminent was humanely euthanized according to Numira Biosciences Standard Operating Procedures. Body weights were recorded on the day after arrival, the day of dosing, and the day of necropsy. Detailed clinical observations were conducted and recorded at 0 minutes, 15 minutes, and 2 hours post-dose to assess tolerability of injections.

[3] = Animal health / clinical observations in dose response study; format: in vivo
Protocol: (§2) The day of dosing on the study was designated as Study Day 1. Each peptide-oligomer-conjugate was vortexted for approximately 10 seconds prior to dosing, and administered via tail vein as a slow push bolus (˜5 seconds; 200 μL). Dosing was performed over two days. All animals receiving the same peptide-oligomer-conjugate were dosed on the same day. […] Any remaining spare animals were necropsied and tissues collected as specified below.
as §1
Animals unlikely to survive until the next scheduled observation were weighed and euthanized. Animals found dead were weighed and the time of death was estimated as closely as possible. Blood and tissue samples were not collected.
The partial gross necropsy included examination and documentation of findings. All external surfaces and orifices were evaluated. All abnormalities observed during the collection of the tissues listed below were described completely and recorded. No additional tissues were taken.

dystrophin exon 23 = assay: Dose response for efficacy in mdx mice: % exon 23 skipping by nested RT-PCR; format: in vivo, Mouse (mdx); details: for % Exon 23 Skip (Average), Diaphragm / % Exon 23 Skip (Average), Heart / % Exon 23 Skip (Average), Quadricep (L): mdx mice, 7 days post-dose, n=5
Description: The aim of this study was to compare efficacy of peptide-oligomer-conjugates of the disclosure in a dose response study in mice. The spacing between the peptide and PMO modulates efficacy. Accordingly, PEG lengths of 3, 4, and 8 were used to systematically increase spacing between Ac-R6-Gly (SEQ ID NO:1) and the PMO. Additionally, an all-D amino acid version of Ac-R6-Gly (SEQ ID NO:1) and Ac-R6-Apa (SEQ ID NO:4) (4-amino phenyl acetic acid; aromatic, hydrophobic linker) were used (Table 2).
Selected peptide-oligomer-conjugates that were tested are listed in Table 2 (the peptide-oligomer-conjugates were formulated in saline and stored at 5° C.).
Animals were randomized into treatment groups based on cage weights as specified in Table 4.
as §2
On day 8 (7 days post-dose), all animals, including any untreated or spare animals, were humanely euthanized with carbon dioxide. Euthanasia was performed in accordance with accepted American Veterinary Medical Association (AVMA) guidelines on Euthanasia, June 2007.
Tissues were collected within 15 minutes or less of euthanasia. All instruments and tools used were changed between treatment groups. All tissues were flash frozen and stored at a temperature lower than −70° C. as soon as possible after collection. The following tissues were collected: liver, kidneys, heart, quads, and diaphragm.
RNA from mouse quadriceps, heart, and diaphragm tissue was purified using GE Illustra RNAspin 96 well extraction kits. Briefly, 400 μL of lysis buffer (RA1+1% 2-mercaptoethanol was added to about 20-30 mg of frozen tissue in a plate with zirconia beads (Biospec) and homogenized using GenoGrinder (Spex Sample Prep) at 4×8 minutes at 1750 RPM; cooling between each run. The homogenate was immediately processed for RNA purification according to the GE RNAspin Illustra 96 well protocol. Total RNA was quantitated with a Nanodrop 2000 spectrophotometer (ThermoScientific).
RNA was analyzed by a classic nested PCR reaction. RT-PCR reagents were from Invitrogen unless otherwise specified. PCR reactions were run in a CFX96 or S1000 thermocycler (BioRad). Final cDNA products were separated on a NuPage 10% TBE gel (Invitrogen) run at 200V, 1 hr at room temperature. Gels were scanned with a Typhoon Trio (GE Healthcare) using a 670 BP 30 Cy5 emission filter and analyzed with ImageQuant software.
Primers used for PCR analysis were as follows: dystrophin outer forward (5′-[…]-3′; SEQ ID NO:9), dystrophin outer reverse (5′-[…]-3′; SEQ ID NO:10), dystrophin inner forward (5′-[…]-3′; SEQ ID NO:11), and dystrophin inner reverse (5′-[…]-3′; SEQ ID NO:12).

[4] = design: species or system Mouse (mdx); details: mouse, in vivo
Description: BUN levels are increased when compared to PPMO-8.

[5] = 100 mg/kg single i.v. injection
[6] = 150 mg/kg single i.v. injection
[7] = 200 mg/kg single i.v. injection
[8] = 5 mg/kg single i.v., day 8, one value per animal, 5 mg/kg
[9] = 10 mg/kg single i.v., day 8, one value per animal, 10 mg/kg
[10] = 20 mg/kg single i.v., day 8, one value per animal, 20 mg/kg
[11] = 40 mg/kg single i.v., day 8, one value per animal (FD = found dead), 40 mg/kg
[12] = 80 mg/kg single i.v., day 8, one value per animal, 80 mg/kg

In the case of CC(=O)N[C@@H](CCCNC(=N)N)C(=O)N[C@@H](CCCNC(=N)N)C(=O)N[C@@H](CCCNC(=N)N)C(=O)N[C@@H](CCCNC(=N)N)C(=O)N[C@@H](CCCNC(=N)N)C(=O)N[C@@H](CCCNC(=N)N)C(=O)NCC(=O)N1CCN(C(=O)OCCOCCOCCOC(=O)N2C[C@@H](COP(=O)(N(C)C)N3C[C@@H](COP(=O)(N(C)C)N4C[C@@H](COP(=O)(N(C)C)N5C[C@@H](COP(=O)(N(C)C)N6C[C@@H](COP(=O)(N(C)C)N7C[C@@H](COP(=O)(N(C)C)N8C[C@@H](COP(=O)(N(C)C)N9C[C@@H](COP(=O)(N(C)C)N%10C[C@@H](COP(=O)(N(C)C)N%11C[C@@H](COP(=O)(N(C)C)N%12C[C@@H](COP(=O)(N(C)C)N%13C[C@@H](COP(=O)(N(C)C)N%14C[C@@H](COP(=O)(N(C)C)N%15C[C@@H](COP(=O)(N(C)C)N%16C[C@@H](COP(=O)(N(C)C)N%17C[C@@H](COP(=O)(N(C)C)N%18C[C@@H](COP(=O)(N(C)C)N%19C[C@@H](COP(=O)(N(C)C)N%20C[C@@H](COP(=O)(N(C)C)N%21CCN(C(=O)OCCOCCOCCO)CC%21)O[C@@H](n%21cnc%22c(=O)[nH]c(N)nc%22%21)C%20)O[C@@H](n%20ccc(N)nc%20=O)C%19)O[C@@H](n%19cc(C)c(=O)[nH]c%19=O)C%18)O[C@@H](n%18cnc%19c(N)ncnc%19%18)C%17)O[C@@H](n%17cc(C)c(=O)[nH]c%17=O)C%16)O[C@@H](n%16cc(C)c(=O)[nH]c%16=O)C%15)O[C@@H](n%15cnc%16c(N)ncnc%16%15)C%14)O[C@@H](n%14ccc(N)nc%14=O)C%13)O[C@@H](n%13ccc(N)nc%13=O)C%12)O[C@@H](n%12cc(C)c(=O)[nH]c%12=O)C%11)O[C@@H](n%11cc(C)c(=O)[nH]c%11=O)C%10)O[C@@H](n%10cnc%11c(N)ncnc%11%10)C9)O[C@@H](n9cnc%10c(N)ncnc%109)C8)O[C@@H](n8ccc(N)nc8=O)C7)O[C@@H](n7ccc(N)nc7=O)C6)O[C@@H](n6ccc(N)nc6=O)C5)O[C@@H](n5cnc6c(N)ncnc65)C4)O[C@@H](n4cnc5c(=O)[nH]c(N)nc54)C3)O[C@@H](n3cc(C)c(=O)[nH]c3=O)C2)CC1 (stereo partly drawn) [PPMO-4], the “MTD % Survival” value ([1]; 50 mg/kg single i.v. injection) was 100%, the “MTD % Survival” value [1, 5] was 100% and the MTD in-life observations ([1]; 100 mg/kg single i.v.) was 3/3 slow to recover at 15 min., ok by 2 hours. For the same compound, the “MTD % Survival” value [1, 6] was 100%, the MTD in-life observations ([1]; 150 mg/kg single i.v.) was 3/3 lethargic at 15 min., ok by 2 hours and the “MTD % Survival” value [1, 7] was 0%. The MTD in-life observations ([1]; 200 mg/kg single i.v.) was 3/3 lethargic at 15 min and 2 hours, 3/3 dead at 24 hours, the “Individual body weight, pre-necropsy” value [2, 8] was 21.45 g and 22.61 g and 19.15 g and 19.6 g and 21.53 g and the “Individual body weight, pre-necropsy” value [2, 9] was 19.41 g and 21.91 g and 18.98 g and 20.43 g and 20.49 g. For the same compound, the “Individual body weight, pre-necropsy” value [2, 10] was 20.09 g and 21.25 g and 22.62 g and 20.71 g and 17.08 g, the “Individual body weight, pre-necropsy” value [2, 11] was 20.59 g and 18.25 g and 22.63 g and 21.35 g and 21.22 g and the “Individual body weight, pre-necropsy” value [2, 12] was 23.86 g and 17.9 g and 21.36 g and 21.1 g and 20.69 g. For the same compound, the Animal health observation ([3]; 5 mg/kg, at necropsy, animal 2406) was “right eye closed and had a white substance exuding from it”, the Animal health observation ([3]; 40 mg/kg single i.v.) was “slow to recover at the 15 minute observation but recovered by the 2 hour observation” and the Animal health observation ([3]; 80 mg/kg single i.v.) was “slow to recover at the 15 minute observation but recovered by the 2 hour observation”.

For “Ac-dR6-G (all-D amino acid R) (SEQ ID NO: 8) (RRRRRRG; N-acetyl; all-D amino acids; SITE 1 acetylation of N terminus; SITE 1..6 D-Arginine) [PPMO-7]”, the “MTD % Survival” value ([1]; 50 mg/kg single i.v. injection) was 100%, the “MTD % Survival” value [1, 5] was 100% and the MTD in-life observations ([1]; 100 mg/kg single i.v.) was 3/3 slow to recover at 15 min., ok by 2 hours. For the same compound, the “MTD % Survival” value [1, 6] was 100%, the MTD in-life observations ([1]; 150 mg/kg single i.v.) was 3/3 slow to recover at 15 min., ok by 2 hours and the “MTD % Survival” value [1, 7] was 33%. For the same compound, the MTD in-life observations ([1]; 200 mg/kg single i.v.) was 2/3 dead at 15 minutes, 1/3 lethargic at 15 min and 2 hours, the Tolerability ([1]; MTD study, in words) was “not well-tolerated” and the “Individual body weight, pre-necropsy” value [2, 8] was 22.3 g and 22.46 g and 23.21 g and 21.43 g and 23.41 g. For the same compound, the “Individual body weight, pre-necropsy” value [2, 9] was 17.85 g and 22.7 g and 23.56 g and 21.97 g and 21.8 g, the “Individual body weight, pre-necropsy” value [2, 10] was 20.85 g and 20.17 g and 21.1 g and 21.38 g and 24.55 g and the “Individual body weight, pre-necropsy” value [2, 11] was 22.58 g and 22.21 g and 21.29 g and 18.19 g and 20.93 g. The “Individual body weight, pre-necropsy” value [2, 12] was 21.98 g and 22.63 g and 19.65 g and 19.9 g and 22.86 g, the “Efficacy (% exon 23 skipping), in words” value (dystrophin exon 23; comparison with other conjugates / linkers) was “improved efficacy” and the “% Exon 23 Skip (Average), Diaphragm” value (dystrophin exon 23; 5 mg/kg single i.v. injection) was 1%. For the same compound, the “% Exon 23 Skip (Average), Heart” value (dystrophin exon 23; 5 mg/kg single i.v. injection) was 0%, the “% Exon 23 Skip (Average), Quadricep (L)” value (dystrophin exon 23; 5 mg/kg single i.v. injection) was 4% and the “% Exon 23 Skip (Average), Diaphragm” value (dystrophin exon 23; 10 mg/kg single i.v. injection) was 6%. For the same compound, the “% Exon 23 Skip (Average), Heart” value (dystrophin exon 23; 10 mg/kg single i.v. injection) was 2%, the “% Exon 23 Skip (Average), Quadricep (L)” value (dystrophin exon 23; 10 mg/kg single i.v. injection) was 11% and the “% Exon 23 Skip (Average), Diaphragm” value (dystrophin exon 23; 20 mg/kg single i.v. injection) was 30%. For the same compound, the “% Exon 23 Skip (Average), Heart” value (dystrophin exon 23; 20 mg/kg single i.v. injection) was 13%, the “% Exon 23 Skip (Average), Quadricep (L)” value (dystrophin exon 23; 20 mg/kg single i.v. injection) was 53% and the “% Exon 23 Skip (Average), Diaphragm” value (dystrophin exon 23; 40 mg/kg single i.v. injection) was 67%. For the same compound, the “% Exon 23 Skip (Average), Heart” value (dystrophin exon 23; 40 mg/kg single i.v. injection) was 42%, the “% Exon 23 Skip (Average), Quadricep (L)” value (dystrophin exon 23; 40 mg/kg single i.v. injection) was 89% and the “% Exon 23 Skip (Average), Diaphragm” value (dystrophin exon 23; 80 mg/kg single i.v. injection) was 93%. The “% Exon 23 Skip (Average), Heart” value (dystrophin exon 23; 80 mg/kg single i.v. injection) was 93%, the “% Exon 23 Skip (Average), Quadricep (L)” value (dystrophin exon 23; 80 mg/kg single i.v. injection) was 92% and the “Liver and kidney serum chemistry markers” value [4] was “increased liver and kidney serum chemistry markers”.
